We go through 3 molecules from publication PMC12316982 (Nature Communications, 2025).

This experiment deals with stabilized neuraminidase protein (sNAp) of A/Vietnam/1203/2004 (VN04, H5N1) (Influenza A virus A/Vietnam/1203/2004 …, UniProt Q6DPL2, stabilised). Kind of experiment: ELISA. Conditions: both partners purified.

B1: NCS.1.3 (human IgG1) (antibody, V domains shown)
VH: QVQLQESGPRLVKPSETLSLTCSVSGESISSGGYYWTWIRQHPGKGLEWIGNIFDTGSTDYSPSLKTRLTISIDTSKNQFYLRLTSATAADTAVYYCARVGFSLETDRPYYLGLDVWGQGTTVTVSS
VL: DIVMTQSPLTLPVTPGEPASISCRSSQSLLHSNGYTYLDWYLQKPGQSPQLLIYFASNRASGVPDRFSGSGSGTYFTLKISRVEAEDVGVYYCMQAVQSPWTFGQGTKVEIK
Take B1: the binding result is “binds”.

B2: NCS.1 (human IgG1) (antibody, V domains shown)
VH: QVQLPESGPRLVKPSETLSLTCSVSGESISSGGYYWTWIRQHPGKGLEWIGNIFDTGSTHYSPSLKTRLTISIDTSKNQFYLRLNSATAADTAVYYCARVGYSLETDRPYYFGLDVWGQGTTVTVSS
VL: DIVMTQSPLSLPVTPGEPASISCRSSQSLLHSNGYTYLDWYLQKPGQSPQLLIYLASNRASGVPDRFSGSGSGTYFTLKISRVEAEDVGVYYCMQAVQTPWTFGQGTKVEIK
Regarding B2, the binding result is listed as “binds”.

B3: NCS.1.1 (human IgG1) (antibody, V domains shown)
VH: QVQLQESGPRLVKPSETLSLTCSVSGESISSGGYYWTWIRQHPGKGLEWIGNIFDTGSTDYSPSLKTRLTISIDTSKNQFYLRLNSATAADTAVYYCARVGFSLETDRPYYLGLDVWGQGTTVTVSS
VL: DIVMTQSPLSLPVTPGEPASISCRSSQSLLHSNGYTYLDWYLQKPGQSPQLLISFTSNRASGVPDRFSGSGSGTYFTLKISRVEAEDVGVYYCMQAVQTPWTFGQGTKVEIK
As for B3, the binding result is on record as “binds”.
